Experimental data as given in PMC6002036, “Characterization of a non-nudix pyrophosphatase points to interplay between flavin and NAD(H) homeostasis in Saccharomyces cerevisiae” (PLoS ONE, 2018).

Columns and labels:
[1] = biological target: the molecule itself; experiment: SEC; gel filtration on Superdex 200 10/300 in 50 mM potassium phosphate pH 7.5, 150 mM KCl, 100 mM L-arginine HCl, 0.1% Tween-20, 1 mM THP; calibrated with standards of 12.4-200 kDa; Fpy1p detected in fractions by enzymatic assay
[2] = substrate: Cc1cc2nc3c(=O)[nH]c(=O)nc-3n(C[C@H](O)[C@H](O)[C@H](O)COP(=O)(O)OP(=O)(O)OC[C@H]3O[C@@H](n4cnc5c(N)ncnc54)[C@H](O)[C@@H]3O)c2cc1C; experiment: HPLC fluorescence of FMN product, Michaelis-Menten fit; type: biochemical, Saccharomyces cerevisiae; conditions: 4 mM CoCl2, 200 mM KCl, 100 mM Hepes-KOH pH 7.0, 30 °C
From the text: HPLC fluorescence of FMN product, Michaelis-Menten fit on Fpy1p

B1: Fpy1p (protein encoded by YMR178w), recombinant with V5 epitope and 6xHis tag (enzyme, S. cerevisiae, UniProt Q03219 1-274, looked up)
chain: MVKVTAACIIIGDEVLNGKVVDTNSTFFAKYCFDHGIQLKEIATIGDDETQIVDTVRRLVKNYDFIISTGGIGPTHDDITYECMAKSFNLPCELDEECKERMRHKSDPEARLDADALKAHYQMATMPKGTNVKNYYVCDDLWVPICSISHKMYILPGIPQLFARMLKAFTPTLKKIYNLDKDPREYVRYFVRTHLTESQISKELKLIQDESTKVSEAIKIGSYPHFGMGFNTVSILGEKKDDSYLKSIVNRVVNNLEGEVISSELENKFSNQES
notes: Fpy1p, the pyrophosphatase encoded by ORF YMR178w of S. cerevisiae; whole open reading frame without the stop codon, amplified from the start codon; also called YMR178wp; source: S. cerevisiae strain Y258 (pYES-DEST52, galactose induction), purified (two-step IMAC: Cu2+ then Ni2+)
- stoichiometry N [1]: 3
- Km [2]: 16.1 ± 2.1 µM
- kcat [2]: 0.38 s⁻¹
- kcat/Km [2]: 23000 M⁻¹ s⁻¹
